# Results as given in patent US20130171236A1, “Prevention and Treatment of Ischemia-Reperfusion Injury and Related Conditions” (MEDICAL UNIVERSITY OF SOUTH CAROLINA, priority 2006, published 2013).
# Key:
# C57B1/6 mice [1] = assay: Intestinal ischemia-reperfusion injury model in immune competent mice; assay type: in vivo; details: injected right before the reperfusion phase, FIG. 9
# Procedure: To address this issue, the inventors created compounds that could block the effects of the monoclonal antibodies. This concept was first tested with the antibodies recognizing phospholipids, and liposomes were created composed of cholesterol and the phospholipids phosphatidylcholine and phosphoglycerol.
# Wild type C57BL/6 are utilized for these studies. The ischemia-reperfusion model is performed as outlined briefly. Anesthesia is induced with ketamine (16 mg/kg) and xylazine (8 mg/kg) administered by intramuscular injection. All procedures are performed with the animals breathing spontaneously and body temperature maintained at 37° C. using a water-circulating heating pad. To induce ischemia-reperfusion injury, a midline laparotomy is performed prior to a 30 minute equilibration period. […] After this ischemic phase, the clamp is removed under direct visualization and the intestine allowed to perfuse for 2 hours. […] The laparotomy incisions are then sutured and the animals monitored during the reperfusion period. […]
# For histology and immunohistochemistry, immediately after euthansia segments of small intestine specimens are fixed in 10% buffered formalin. […] In addition, the villus height of at least 10 villi from the same section is measured using an ocular micrometer. […]
# C57B1/6 mice [2] = assay: MCAO ischemic stroke and reperfusion in C57B1/6 mice, treatment; assay type: in vivo; details: 100 μg i.v. at 30 min post reperfusion
# Procedure: Eight week old male C57B1/6 and C57B1/6 C3 deficient mice (Jackson labs, Bar Harbor, Me.) were used in experiments. Mice were anesthetized with chloral hydrate (350 mg/kg) and xylazine (4 mg/kg) i.p., and the left common carotid artery of each mouse was exposed through a mid-line incision in the neck. […] The distal end of the ECA was ligated with 6-0 silk and transected, and 6-0 silk was tied loosely around the ECA stump. The clip was then removed, and the blunted tip of a 4-0 nylon suture was inserted into the ECA stump. The loop of the 6-0 silk was tightened around the stump, and the nylon suture advanced into and through the internal carotid artery until it rested in the anterior cerebral artery. After the nylon suture had been placed for 60 minutes, it was pulled back into the ECA, and the incision closed. […]
# Infarct volume was measured by TTC staining and volume calculated using image analysis.
# Animals were monitored for 24 hours post reperfusion and clinical assessed for neurological deficit. Behavioral/neurological deficit was scored as follows: 0, normal motor function; 1, flexion of torso and contralateral forelimb when animal is lifted by the tail; 2, circling to the contralateral side when held by tail on flat surface, but normal posture at rest; 3, leaning to the contralateral side at rest; 4, no spontaneous motor activity. […]
molecule,measurement,setting,value
"annexin IV: recombinant annexin IV, a phospholipid binding protein, prepared as in Example 2 (protein, listed as Homo sapiens) MATKGGTVKAASGFNAMEDAQTLRKAMKGLGTDEDAIISVLAYRNTAQRQEIRTAYKSTIGRDLIDDLKSELSGNFEQVIVGMMTPTVLYDVQELRRAMKGAGTDEGCLIEILASRTPEEIRRISQTYQQQYGRSLEDDIRSDTSFMFQRVLVSLSAGGRDEGNYLDDALVRQDAQDLYEAGEKKWGTDEVKFLTVLCSRNRNHLLHVFDEYKRISQKDIEQSIKSETSGSFEDALLAIVKCMRNKSAYFAEKLYKSMKGLGTDDNTLIRVMVSRAEIDMLDIRAHFKRLYGKSLYSFIKGDTSGDYRKVLLVLCGGDD",intestinal ischemia-reperfusion injury,C57B1/6 mice [1],nearly completely protected mice from ischemia-reperfusion injury
same,intestinal ischemia-reperfusion injury,C57B1/6 mice [1]; listed as recombinant annexin IV,reduces the level of intestinal ischemia reperfusion injury
same,neurological deficit,"C57B1/6 mice [2]; 24 hours, FIG. 8",significant reduction in neurological deficit
same,cerebral infarct volume (TTC),C57B1/6 mice [2]; FIG. 7,significantly protects against cerebral infarct
